Assay [1] addresses human PF4 isolated from human platelets (human). Nature of the assay: other fluorescence titration.
The target of assay [2] is full-length SARS-CoV-2 spike protein of original COVID-19 (SARS-CoV-2) (UniProt P0DTC2). Nature of the assay: ELISA.

“full-length SARS-CoV-2 spike protein of original COVID-19 (from UniProt P0DTC2) (natural protein)”: in assay [1], the Kd was 586 nM.

Substance “human PF4 isolated from human platelets (natural protein)” returned an OD at 450 nm in assay [2] above 0.5.

In general, Kd refers to the free concentration of one partner at which half of the binding sites on the other are occupied at equilibrium, for simple one-to-one binding. A high value points to lower affinity.

Values taken from publication PMC10967930.
